Experimental data from the supplement of paper PMC9112550, “Optimization of the antimicrobial peptide Bac7 by deep mutational scanning” (BMC Biology, 2022).

tested on: Escherichia coli TOP10; test: shrunken log2 fold change of peptide-encoding DNA abundance (4.5 h post-induction vs induction); higher = less antimicrobial activity (less host growth inhibition); conditions: time post-induction: 4.5 h; library: site-saturation at positions 5, 18, 19, 20
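Note: peptides expressed intracellularly from a pBAD plasmid library in pooled LB shake-flask culture, induced with 0.3% L-arabinose, DNA abundance read by NGS, three biological replicates, DESeq2 with apeglm shrinkage.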

Sequence	shrunken log2 fold change
RRIRMRPPRLPRPRPRPMNQPRP	0.646
RRIRMRPPRLPRPRPRPMPSPRP	0.262
RRIRMRPPRLPRPRPRPMQDPRP	1.14
RRIRMRPPRLPRPRPRPMSWPRP	0.132
RRIRMRPPRLPRPRPRPMWAPRP	0.392
RRIRMRPPRLPRPRPRPMWRPRP	0.00628
RRIRMRPPRLPRPRPRPMYEPRP	0.221
RRIRMRPPRLPRPRPRPNAHPRP	8.74e-05
RRIRMRPPRLPRPRPRPNATPRP	2.16
RRIRMRPPRLPRPRPRPNCQPRP	0.356
RRIRMRPPRLPRPRPRPNDCPRP	-0.00865
RRIRMRPPRLPRPRPRPNDHPRP	-0.0869
RRIRMRPPRLPRPRPRPNGIPRP	0.0753
RRIRMRPPRLPRPRPRPNGWPRP	0.175
RRIRMRPPRLPRPRPRPNHVPRP	-0.409
RRIRMRPPRLPRPRPRPNIDPRP	-0.764
RRIRMRPPRLPRPRPRPNIGPRP	-0.0302
RRIRMRPPRLPRPRPRPNKCPRP	0.216
RRIRMRPPRLPRPRPRPNKWPRP	0.079
RRIRMRPPRLPRPRPRPNLHPRP	-0.0942
RRIRMRPPRLPRPRPRPNNWPRP	-0.0238
RRIRMRPPRLPRPRPRPNQRPRP	0.332
RRIRMRPPRLPRPRPRPNSHPRP	-0.451
RRIRMRPPRLPRPRPRPNSVPRP	-0.0202
RRIRMRPPRLPRPRPRPNVFPRP	0.136

Sequence	shrunken log2 fold change
RRIRMRPPRLPRPRPRPNVLPRP	0.359
RRIRMRPPRLPRPRPRPNVQPRP	-0.166
RRIRMRPPRLPRPRPRPNWNPRP	0.344
RRIRMRPPRLPRPRPRPNWPPRP	0.096
RRIRMRPPRLPRPRPRPNYIPRP	-0.492
RRIRMRPPRLPRPRPRPNYVPRP	-0.536
RRIRMRPPRLPRPRPRPPAGPRP	1.5
RRIRMRPPRLPRPRPRPPCEPRP	1.11
RRIRMRPPRLPRPRPRPPCTPRP	0.738
RRIRMRPPRLPRPRPRPPDYPRP	0.345
RRIRMRPPRLPRPRPRPPGKPRP	0.978
RRIRMRPPRLPRPRPRPPHMPRP	0.296
RRIRMRPPRLPRPRPRPPIQPRP	0.693
RRIRMRPPRLPRPRPRPPMGPRP	0.921
RRIRMRPPRLPRPRPRPPMYPRP	-0.0977
RRIRMRPPRLPRPRPRPPNHPRP	0.206
RRIRMRPPRLPRPRPRPPNLPRP	0.0707
RRIRMRPPRLPRPRPRPPNPPRP	0.822
RRIRMRPPRLPRPRPRPPNQPRP	0.42
RRIRMRPPRLPRPRPRPPNWPRP	1.03
RRIRMRPPRLPRPRPRPPPAPRP	2.14
RRIRMRPPRLPRPRPRPPPGPRP	1.86
RRIRMRPPRLPRPRPRPPRLPRP	1.06
RRIRMRPPRLPRPRPRPPSAPRP	1.2
RRIRMRPPRLPRPRPRPPTMPRP	0.271

Sequence	shrunken log2 fold change
RRIRMRPPRLPRPRPRPPWFPRP	0.568
RRIRMRPPRLPRPRPRPPYVPRP	-0.0137
RRIRMRPPRLPRPRPRPQATPRP	-0.00147
RRIRMRPPRLPRPRPRPQCDPRP	-0.0599
RRIRMRPPRLPRPRPRPQCSPRP	0.113
RRIRMRPPRLPRPRPRPQCTPRP	0.0479
RRIRMRPPRLPRPRPRPQCYPRP	-0.0225
RRIRMRPPRLPRPRPRPQDFPRP	0.0427
RRIRMRPPRLPRPRPRPQFAPRP	0.0822
RRIRMRPPRLPRPRPRPQFDPRP	-0.0694
RRIRMRPPRLPRPRPRPQFVPRP	-0.0894
RRIRMRPPRLPRPRPRPQGFPRP	-0.00865
RRIRMRPPRLPRPRPRPQHSPRP	-0.183
RRIRMRPPRLPRPRPRPQIDPRP	0.141
RRIRMRPPRLPRPRPRPQIEPRP	0.277
RRIRMRPPRLPRPRPRPQIWPRP	0.144
RRIRMRPPRLPRPRPRPQKQPRP	0.0157
RRIRMRPPRLPRPRPRPQLAPRP	0.598
RRIRMRPPRLPRPRPRPQMGPRP	0.0997
RRIRMRPPRLPRPRPRPQMLPRP	0.186
RRIRMRPPRLPRPRPRPQMSPRP	0.174
RRIRMRPPRLPRPRPRPQNYPRP	-0.377
RRIRMRPPRLPRPRPRPQQLPRP	-0.0103
RRIRMRPPRLPRPRPRPQQRPRP	0.586
RRIRMRPPRLPRPRPRPQRIPRP	-0.0462
